# Values of other authors in PMC5724930.
# Like-named read-outs stand apart in the source and are kept apart here.
# Legend:
# [1] = biological target: proPanD (Escherichia coli) (UniProt P0A790)
# [2] = biological target: proPanD (Escherichia coli) (UniProt P0A790); remark: listed apart in the source
# Sequence of proPanD (Escherichia coli) (P0A790 whole entry): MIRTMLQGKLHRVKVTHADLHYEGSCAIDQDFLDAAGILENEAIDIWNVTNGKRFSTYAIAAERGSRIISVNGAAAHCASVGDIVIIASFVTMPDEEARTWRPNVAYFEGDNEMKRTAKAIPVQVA
# Sequence of PanZ (P37613 whole entry): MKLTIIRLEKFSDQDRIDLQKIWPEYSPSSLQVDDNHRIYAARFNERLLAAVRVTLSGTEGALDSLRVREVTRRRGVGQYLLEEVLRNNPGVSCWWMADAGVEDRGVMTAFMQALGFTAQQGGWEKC
substance,measurement,setting,value
PanZ (from UniProt P37613),Kd,[1],4 µM
same,Kd,[2],100 nM
